Reference: paper PMC6168263 (The Journal of Cell Biology, 2018)

B1: MBP-Hof1 F-BAR (1-275) (domain or fragment, S. cerevisiae, UniProt Q05080 1-275, looked up)
chain: MSYSYEACFWDPNDNGVNILLGHISQGIRSCDSMILFFKQRSELEKDYARRLGAITGKLDKDIGTNMDYGKLNETFNVVLSVEKARAQSHSKQSEILFRQIYTDTKAFAANLQARYTTLSGKIERLRMDKFNKKKGCEVLQKKLQDAQIRFRDLQLNENNMIGAKRVEHNKRELLKWESNSQEYKVQLDVLKQEYKASQKFWIHEWAQLSCELQEMENARISFLQSKLQQFATSSMETYILEQTKMDMLTNHLNSFTAADEISTFSKENGTGRLK
B2: MBP-Hof1-FL-6His (natural protein, S. cerevisiae, UniProt Q05080 1-669, looked up)
chain: MSYSYEACFWDPNDNGVNILLGHISQGIRSCDSMILFFKQRSELEKDYARRLGAITGKLDKDIGTNMDYGKLNETFNVVLSVEKARAQSHSKQSEILFRQIYTDTKAFAANLQARYTTLSGKIERLRMDKFNKKKGCEVLQKKLQDAQIRFRDLQLNENNMIGAKRVEHNKRELLKWESNSQEYKVQLDVLKQEYKASQKFWIHEWAQLSCELQEMENARISFLQSKLQQFATSSMETYILEQTKMDMLTNHLNSFTAADEISTFSKENGTGRLKHKTSKGDMNSSANWAQMSSISTTSKKTESYMDNIRKLSSQLKETENKRKLASIDKYEKPLPSPEVTMATQFRNSTPVIRNETKVVANPTLSLRSSPVQLQSNVDDSVLRQKPDKPRPIVGEEQLKPDEDSKNPDEKGLMVHKRNQSLSSPSESSSSNPTDFSHIKKRQSMESMTTSVSSMANSIDDSQRFAKSWNSSNRKRKSMSHLQVPSSASSRSDDGGRTPNSAHNLNEDDYNTRRDTSTSTILFKPPVAVRGTSRGHTHRQSMIMQDSSNPIEDALYEMERIQSSSKPGTKTGNIMDERGVVRDRGITVTLPIVTSEGFPVIEYAKAMYPLIGNEAPGLANFHKGDYLLITEIVNKDWYKGEVYDNDRIDRNHRIGLIPYNFIQLLHQGL
B3: MBP-Hof1-NT-SNAP-549 (domain or fragment, S. cerevisiae, UniProt Q05080 1-340, looked up)
chain: MSYSYEACFWDPNDNGVNILLGHISQGIRSCDSMILFFKQRSELEKDYARRLGAITGKLDKDIGTNMDYGKLNETFNVVLSVEKARAQSHSKQSEILFRQIYTDTKAFAANLQARYTTLSGKIERLRMDKFNKKKGCEVLQKKLQDAQIRFRDLQLNENNMIGAKRVEHNKRELLKWESNSQEYKVQLDVLKQEYKASQKFWIHEWAQLSCELQEMENARISFLQSKLQQFATSSMETYILEQTKMDMLTNHLNSFTAADEISTFSKENGTGRLKHKTSKGDMNSSANWAQMSSISTTSKKTESYMDNIRKLSSQLKETENKRKLASIDKYEKPLPSPEV
modifications: BG-549 SNAP dye on the SNAP tag
B4: 6His-Bnr1 FH2 (868-1,291) (domain or fragment, S. cerevisiae, UniProt P40450 868-1291, looked up)
chain: DLKPPPTEKRLKQIHWDKVEDIKDTLWEDTFQRQETIKELQTDGIFSQIEDIFKMKSPTKIANKRNAESSIALSSNNGKSSNELKKISFLSRDLAQQFGINLHMFSQLSDMEFVMKVLNCDNDIVQNVNILKFFCKEELVNIPKSMLNKYEPYSQGKDGKAVSDLQRADRIFLELCINLRFYWNARSKSLLTLSTYERDYYDLIFKLQKIDDAISHLNRSPKFKSLMFIITEIGNHMNKRIVKGIKLKSLTKLAFVRSSIDQNVSFLHFIEKVIRIKYPDIYGFVDDLKNIEDLGKISLEHVESECHEFHKKIEDLVTQFQVGKLSKEENLDPRDQIIKKVKFKINRAKTKSELLIGQCKLTLIDLNKLMKYYGEDPKDKESKNEFFQPFIEFLAMFKKCAKENIEKEEMERVYEQRKSLLDMR
B5: C-Bud6 (550-788) (domain or fragment, S. cerevisiae, UniProt P41697 550-788, looked up)
chain: AKNSSNRMYMEKSQTELGDLSDTLLSKVDDLQDVIEIMRKDVAERRSQPAKKKLETVSKDLENAQADVLKLQEFIDTEKPHWKKTWEAELDKVCEEQQFLTLQEELILDLKEDLGKALETFDLIKLCCEEQEKNPSRSKSNPILPIMRPGTFNQVREQVMVAVQSLNPDHDSRVEAIDKAEKMWEMERKLKASNEFDDELENFVGNSNLKKSGGFEEVERIRKQKDEANLRAYFGPGFT

Experiments:
[1] = target: B4; test: negative-stain single-particle EM
[2] = target: 6His-Bnr1 FH1-FH2-C (residues 757-1,375) (S. cerevisiae, UniProt P40450 757-1375); test: negative-stain single-particle EM
[3] = target: 649-biotin-SNAP-C-Bnr1 (S. cerevisiae, UniProt P40450 757-1375, BG-649-PEG-Biotin on the SNAP tag); test: TIRF microscopy of labelled protein on formin-coated beads
[4] = target: the molecule itself; test: negative-stain single-particle EM

Sequence of 649-biotin-SNAP-C-Bnr1 (P40450 757-1375): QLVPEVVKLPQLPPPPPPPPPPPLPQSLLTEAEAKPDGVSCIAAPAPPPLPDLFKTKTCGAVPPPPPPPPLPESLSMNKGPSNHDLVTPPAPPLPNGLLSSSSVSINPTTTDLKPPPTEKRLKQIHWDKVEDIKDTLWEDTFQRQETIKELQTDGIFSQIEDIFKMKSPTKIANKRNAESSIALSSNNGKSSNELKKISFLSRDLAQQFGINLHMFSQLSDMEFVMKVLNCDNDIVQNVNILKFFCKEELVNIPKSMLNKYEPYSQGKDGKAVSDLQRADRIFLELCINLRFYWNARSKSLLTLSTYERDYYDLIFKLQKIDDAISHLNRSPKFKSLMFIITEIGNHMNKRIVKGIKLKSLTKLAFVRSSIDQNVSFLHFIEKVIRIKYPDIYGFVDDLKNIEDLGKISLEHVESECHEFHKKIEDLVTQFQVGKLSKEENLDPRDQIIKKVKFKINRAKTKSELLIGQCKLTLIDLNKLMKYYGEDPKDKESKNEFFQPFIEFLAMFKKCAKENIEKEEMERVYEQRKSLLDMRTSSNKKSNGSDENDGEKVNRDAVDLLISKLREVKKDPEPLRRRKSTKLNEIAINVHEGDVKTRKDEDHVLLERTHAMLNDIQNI
Sequence of 6His-Bnr1 FH1-FH2-C (residues 757-1,375) (P40450 757-1375): as above

Binder: B1
stoichiometry N [1]: 2 Bnr1 FH2 domains per Hof1 F-BAR domain

Binder: B2
stoichiometry N [2]: 2 C-Bnr1 dimers per Hof1-FL dimer

Binder: B3
binding result [3]: binds

Binder: B4
stoichiometry N [4]: 2

Binder: B5
binding result [3]: binds
